# Laboratory results reported in patent US20140363423A1 (NATIONAL TAIWAN UNIVERSITY, published 2014).
# “And” between values parts separate entries of the source, which are not always exact repeats. Identical values can stand only once.
# T1: platelet glycoprotein VI (GPVI) on washed human platelets (human), Q9HCN6
# T1 chain: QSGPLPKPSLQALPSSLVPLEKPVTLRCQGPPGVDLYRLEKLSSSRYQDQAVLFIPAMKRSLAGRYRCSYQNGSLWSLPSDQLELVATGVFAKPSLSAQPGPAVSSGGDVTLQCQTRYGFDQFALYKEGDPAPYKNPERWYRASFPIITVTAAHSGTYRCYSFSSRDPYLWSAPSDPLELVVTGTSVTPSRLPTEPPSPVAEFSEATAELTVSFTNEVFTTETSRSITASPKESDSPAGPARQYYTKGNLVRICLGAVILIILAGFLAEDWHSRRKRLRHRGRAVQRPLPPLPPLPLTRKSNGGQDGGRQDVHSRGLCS
# T2: platelet glycoprotein VI (GPVI) on washed human platelets (human, UniProt Q9HCN6 21-339)
# T2 construct: whole, on cells; Native receptor on human platelets; also called platelet GPVI; collagen receptor GPVI
# T2 sequence: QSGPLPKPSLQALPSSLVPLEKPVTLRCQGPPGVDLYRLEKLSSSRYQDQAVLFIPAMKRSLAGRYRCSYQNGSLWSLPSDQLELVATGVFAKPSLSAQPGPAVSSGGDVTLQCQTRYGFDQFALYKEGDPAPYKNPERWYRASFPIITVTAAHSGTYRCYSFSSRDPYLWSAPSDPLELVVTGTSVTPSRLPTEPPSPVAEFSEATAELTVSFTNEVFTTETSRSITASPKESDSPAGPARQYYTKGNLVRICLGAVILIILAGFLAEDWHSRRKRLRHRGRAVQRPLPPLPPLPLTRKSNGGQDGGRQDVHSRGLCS
# Assays:
# [1] = target: platelet glycoprotein VI (GPVI) on washed human platelets (human) (UniProt Q9HCN6); assay: cell-based or functional assay
# [2] = target: T1, platelet glycoprotein VI (GPVI) on …; assay: cell-based or functional assay
# [3] = target: T2, platelet glycoprotein VI (GPVI) on …; assay: flow cytometry on human platelets; inhibition of 6B12 (anti-GPVI) binding
# [4] = target: T2, platelet glycoprotein VI (GPVI) on …; assay: cell-based or functional assay
Molecule,Inhibition of the collagen-induced aggregation (%) at 100 µg/ml [1] [%],Inhibition of the collagen-induced aggregation (%) at 100 µg/ml [4] [%],further results
d-form Tro-α6 hexapeptide C(dK)WM(dN)V,89.4,–,"IC50, inhibition of the collagen-induced aggregation [1]: 6.82 µg/ml and 8.75 µM"
Tro-α6 M117A mutant hexapeptide CKWANV,52.9,–,–
Tro-α6 W116A mutant hexapeptide CKAMNV,12.3,–,–
"GFCKWMNVAC (modifications not checked) [decapeptide of trowaglerix α subunit (Troα10, …)]",–,–,"IC50, inhibition of the collagen-induced aggregation [2]: 30.4 µM; Inhibition of the collagen-induced aggregation (%) at 100 µg/ml [2]: 93.8%; inhibition on collagen-induced aggregation [2]: 60%"
CSLLKKETGFRKWFVASCIGKIPFVCKFPPQC [recombinant convulxin α subunit C-terminal (CVX α C-terminal 104-135)],–,–,binding result [3]: binds
EEFECLISRTFDNQWLSAPCSDTYSFVCKFEA [recombinant convulxin β subunit C-terminal (CVX β C-terminal 94-125)],–,–,binding result [3]: binds
NQWLSR [Agk--β6 hexapeptide NQWLSR],–,24.6,–
RKWVNY [Agg-α6 (Aggretin) hexapeptide RKWVNY],–,21.7,–
"CKWMNV [hexapeptide of trowaglerix α subunit (Troα6, CKWMNV)]",–,44.3,"IC50, inhibition of the collagen-induced aggregation [4]: 83.4 µg/ml and 107 µM"
RKWFVA [CVX-α6 (Convulxin) hexapeptide RKWFVA],–,28.7,–
